Measurements: US20050058649A1 (published 2005)
Where a chain is given by its changes, count along the chain named.

B1: anti-PLA2 mAb 1.18 (antibody, IgG2, V domains shown)
VH: EVQLVQSGAEVKKPGESLKISCKGSGYSFTNYWINWVRQMPGKGLEWMGIIYPGDSDTRYSPSFQGQVTISADKSISTAYLQWSSLKASDTAMYYCARHRLGFDYWGQGTLVTVSS
VL: DIQMTQSPSSLSASVGDRVTITCRASQGIRNDLDWCQQKPGKAPKRLIYAASSLQSGVPSRFSGSGSGTEFTLTISSLQPEDFATYYCLQHNNYPPTFGQGTKVEIKR
B2: anti-PLA2 mAb 1.21 (antibody, IgG2, V domains shown)
VH: B1 VH with S28R, N31S, N35S, L101E, G102A, Y105I, L111M
VL: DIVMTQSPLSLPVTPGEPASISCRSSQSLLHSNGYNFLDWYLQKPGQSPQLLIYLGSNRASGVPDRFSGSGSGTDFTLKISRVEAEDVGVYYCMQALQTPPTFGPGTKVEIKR
B3: anti-PLA2 mAb 1.27 (antibody, IgG2, V domains shown)
VH: EVQLVQSGAEVKKPGESLKISCKGSGYSFTSYWIGWVRQMPGKGLEWMGIIYPGDSDTRYSPSFQGQVTISADKSISTAYLQWSSLKASDTAMYYCARSWTYGMDVWGQGTTVTVSS
VL: EIVLTQSPGTLSLSPGERATLSCRASQSVRSNYLTWYQQKPGQAPRLLIYGASTRATGIPDRFSGSGSGTDFTLTISRLEPEDFAVYYCQQYGSSPLTFGGGTKVEIKR
B4: anti-PLA2 mAb 1.14 (antibody, IgG2, V domains shown)
VH: B3 VH with F29I, S99H, W100S, T101G, Y102S, G103S, M104F, V106Y, T112L
VL: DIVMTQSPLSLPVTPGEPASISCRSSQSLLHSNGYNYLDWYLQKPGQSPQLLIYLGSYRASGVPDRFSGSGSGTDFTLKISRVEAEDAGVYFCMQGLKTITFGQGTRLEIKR
B5: anti-PLA2 mAb 1.7 (antibody, IgG2, V domains shown)
VH: B3 VH with T30I, G103A, M104L, T112A
VL: B3 VL with A25P, I76V
notes: also called 1.7.1
B6: anti-PLA2 mAb 1.5 (antibody, IgG2, V domains shown)
VH: B3 VH with T30I, S99H, T101S
VL: B3 VL with N32G, T35A, K40R, L47F, T54S
notes: also called 1.5.1
B7: anti-PLA2 mAb 2.15 (antibody, IgG4, V domains shown)
VH: QVQLVESGGGVVQPGRSLRLSCAASGFTFSSYGMHWVRQAPGKGLEWVAVIWYDGSNKYYADSVKGRFTISRDNSKNTLYLQMNSLRAEDTAVYYCARRDWNYAFDIWGQGTMVTVSS
VL: DIQMTQSPSSLSASVGDRVTITCRASQSISNYLNWYQQKPGKAPKFLIYAASSLQSGAPSRFSGSGSGTDFTLTISSLQPEDFATYYCQQSYSTPITFGQGTRLEIKR
B8: anti-PLA2 mAb 2.23 (antibody, IgG4, V domains shown)
VH: QVQLEESGGGVVQPGRSLRLSCAASGFTFSSYGMHWVRQGPGKGLEWVAVIWYDGSNKKYADSVKGRFTISRDNSKNTLYLQMNSLRAEDTAVYYCARDGPIFGVVMGYWGQGTLVTVSS
VL: B7 VL with A25T, Y36F, K45I, F46L, A58V, Q89H, T94I
B9: anti-PLA2 mAb 2.7 (antibody, IgG4, V domains shown)
VH: GVQLVQSGAEVKKPGESLKISCKGSGYSFTNYWIGWVRQMPGKGLEWMGIIYPGDSDTRYSPSFQGQVTISADKSISTAYLQWSSLKASDTAIYYCARGGVGAFDIWGQGTMVTVSS
VL: EIVLTQSPGTLSLSPGERATLSCRASQIIRRSSLAWYQEKPGQAPRLLIYGASSRATGIPDRFSGSGSGTDFTLTISRLEPEDFAVYYCQQYGSSPPFTFGPGTKVDIKR
notes: also called 2.7.1
B10: anti-PLA2 mAb 2.19 (antibody, IgG4, V domains shown)
VH: QVQLVESGGGVVQPGRSLRLSCAASGFTFSSYGMHWVRQAPGKGLEWVAAIWYDGSNKWYADSVKGRFTISRDNSKNTLYLQMNSLRAEDTAVYYCARGGTGTPGAFDIWGQGTMVTVSS
VL: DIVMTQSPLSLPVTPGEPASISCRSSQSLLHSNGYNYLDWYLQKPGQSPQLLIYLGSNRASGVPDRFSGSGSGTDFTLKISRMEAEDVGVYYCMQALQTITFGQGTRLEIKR
notes: also called 2.19.1

Each binder was assayed against T1, phospholipase A2 (PLA2) (Homo sapiens (Human), UniProt O15496 43-165) (assay: cell-based or functional assay).
T1 sequence: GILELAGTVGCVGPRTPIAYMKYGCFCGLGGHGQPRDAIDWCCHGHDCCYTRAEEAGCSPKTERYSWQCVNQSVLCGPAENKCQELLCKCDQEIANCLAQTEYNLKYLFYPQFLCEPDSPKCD

Row | Binder | IC50 of inhibition of PLA2 enzyme activity (12-point dose curve) [nM]
1 | B1 | 0.78
2 | B2 | 3.64
3 | B3 | 9.4
4 | B4 | 3.9
5 | B5 | 4.73
6 | B6 | 2.36
7 | B7 | 14.3
8 | B8 | 14.4

The binders below were run against T1, phospholipase A2 (PLA2) (assay: Biacore 2000, captured Ab, global 1:1 fit).
Description: (§1) In the immobilization, HBS-P was used as the running buffer; in the binding studies, HBS-P, with 12 mg/mL of each BSA and dextran, was used as sample and running buffers.
Data were normalized based on the individual antibody capture levels and fit globally to a 1:1 interaction model.

Row | Binder | Kd [nM] | koff [s⁻¹] | kon [M⁻¹ s⁻¹]
9 | B9 | 10 | 0.00104 | 99600
10 | B10 | 6.2 | 0.000115 | 18600
11 | B1 | 50 | 0.00192 | 38600
12 | B2 | 11 | 0.00063 | 57100
13 | B3 | 27 | 0.000922 | 34500
14 | B4 | 18 | 0.000791 | 43900
15 | B5 | 9.5 | 0.000451 | 47400
16 | B6 | 15 | 0.000713 | 48700
17 | B7 | 100 | 0.000902 | 8880
18 | B8 | 120 | 0.000969 | 8270

These binders were tested against T1, phospholipase A2 (PLA2) (assay: Biacore 2000, Ab captured from supernatant, 300 nM PLA2).
Description: as §1
Briefly, antibody supernatants were diluted 1/10 and antibodies were captured individually on the IgG surfaces. After a one-minute wash step, buffer and PLA2 (300 nM) were injected serially (one-minute association, five minute dissociation) over each surface. Capture levels were measured from −20 to 0 seconds and the surfaces were regenerated with a 6-second pulse of 100 mM H₃PO₄.

Row | Binder | Response [RU]
19 | B9 | 126
20 | B10 | 52
21 | B1 | 6
22 | B2 | 61
23 | B3 | 78
24 | B4 | 74
25 | B5 | 118
26 | B6 | 70
27 | B7 | 37
28 | B8 | 7
